From PMC10938909

Assays:
[1] = target: secretory chicken FcRY (lacking the membrane-spanning domain, residues 36-1396); assay: competitive binding assay against DIG-IgY on FcRY-immobilized plate, ELISA; conditions: pH 6.0, DIG-IgY tracer (m10) 27.8 nM, value is DIG-IgY still bound (lower = stronger competition), no-competitor level est. 0.17 nM, n = 3, read off a plot
[2] = target: secretory chicken FcRY (lacking the membrane-spanning domain, residues 36-1396) (chicken); assay: BLI; BLItz, advanced kinetics; chicken FcRY (400 nM) immobilised on Ni-NTA sensor via His tag; Igs 50-600 nM; pH 5.5 (PBS, 0.05% Tween 20, 20 mM MES, 0.5% BSA); association 120 s, dissociation 120 s; 1:1 fit
[3] = target: secretory chicken FcRY (lacking the membrane-spanning domain, residues 36-1396) (chicken)
[4] = target: secretory chicken FcRY (lacking the membrane-spanning domain, residues 36-1396) (chicken); remark: listed apart in the source
native quail IgY (qIgY) = assay: bio-layer interferometry (BLItz, advanced kinetics mode); conditions: pH 5.5; PBS (composition not stated); PBS with 20 mM MES at pH 5.5 or 20 mM HEPES at pH 7.4
[5] = target: recombinant quail IgY-Fc wild type (WT); assay: as above; conditions: pH 5.5; PBS (composition not stated); PBS with 20 mM MES at pH 5.5 or 20 mM HEPES at pH 7.4
[6] = target: recombinant quail IgY-Fc G365A G365A; assay: as above; conditions: pH 5.5; PBS (composition not stated); PBS with 20 mM MES at pH 5.5 or 20 mM HEPES at pH 7.4
[7] = target: recombinant quail IgY-Fc Y363A Y363A; assay: as above; conditions: pH 5.5; PBS (composition not stated); PBS with 20 mM MES at pH 5.5 or 20 mM HEPES at pH 7.4
[8] = target: secretory chicken FcRY (lacking the membrane-spanning domain, residues 36-1396) (chicken); assay: ELISA; graded pH (pH 4.0-7.4), IgY-Fc mutants at 55.6 nM on FcRY held on copper-coated plates; the acidic points (strongest at pH 5.5, pH 5.0-6.0)
[9] = competitor 55.6 nM, parent: est. 0.080
[10] = competitor 111.1 nM, parent: est. 0.060
[11] = competitor 277.8 nM, parent: est. 0.042

Row | Substance | response [1, 9] [nM] | response [1, 10] [nM] | response [1, 11] [nM] | Kd [2] [nM] | koff [2] [s⁻¹] | kon [2] [M⁻¹ s⁻¹] | further results
1 | recombinant quail wild-type IgY-Fc G365S | 0.086 | 0.066 | 0.05 | – | – | – | –
2 | recombinant quail wild-type IgY-Fc (domain or fragment) | – | – | – | 333 | 0.0065 | 19000 | uptake of DIG-labeled WT tracer into egg yolks of laying quail co-injected with the FcRY-neutralizing rabbit antibody Strong Ab (1 mg/100 g BW), relative to control rabbit IgG [3]: 20%; uptake of DIG-labeled WT tracer into egg yolks of laying quail co-injected with the FcRY-neutralizing rabbit antibody Weak Ab (1 mg/100 g BW), relative to control [3]: 60%
3 | recombinant quail wild-type IgY-Fc G365D | 0.15 | 0.13 | 0.14 | – | – | – | –
4 | quail IgY-Fc mutant G365A (domain or fragment) | – | – | – | 197 | 0.0082 | 42000 | uptake of the intravenously injected DIG-labeled IgY-Fc mutant (20 ug/100 g BW) into quail egg yolks, eggs of 6 d, relative to WT [4]: 2 fold
5 | secretory FcRY (IgY-Fc receptor, PLA2R homologue) ectodomain | – | – | – | – | – | – | ka (native quail IgY (qIgY)): 35000 M⁻¹ s⁻¹; kd (native quail IgY (qIgY)): 0.0095 s⁻¹; ka [5]: 19000 M⁻¹ s⁻¹; kd [5]: 0.0065 s⁻¹; ka [6]: 42000 M⁻¹ s⁻¹; kd [6]: 0.0082 s⁻¹; ka [7]: 23000 M⁻¹ s⁻¹; kd [7]: 0.0015 s⁻¹

The next lines start with results.

Row | response [1, 9] [nM] | response [1, 10] [nM] | response [1, 11] [nM] | Kd [2] [nM] | koff [2] [s⁻¹] | kon [2] [M⁻¹ s⁻¹] | Substance | further results
6 | – | – | – | 275 | 0.0095 | 35000 | native quail IgY (ligand) | –
7 | 0.11 | 0.1 | 0.086 | – | – | – | recombinant quail wild-type IgY-Fc N408A | –
8 | – | – | – | 65 | 0.0015 | 23000 | quail IgY-Fc mutant Y363A (domain or fragment) | amount bound at pH 5.0-6.0 relative to WT and G365A [8]: 2 fold
